From publication PMC4960319, “The anti-sigma factor RsrA responds to oxidative stress by reburying its hydrophobic core” (Nature Communications, 2016)
Where “and” joins values, the source holds several entries; their conditions need not be identical. Equal entries are not always repeated. One block for each binder: values may come before it.

What was measured:
Settings in all cases: both partners purified
[1] = target: T1, σR (residues 5-227) (Streptomyces coelicolor, UniProt Q7AKG9 5-227); test: stopped-flow tryptophan fluorescence; 35 °C, with zinc; kon: pseudo-first-order, σR 125 nM, RsrA 1.25-2.5 μM; koff: 2.5 μM complex displaced with 25 μM σR Trp88Ile Trp119Ile; Kd = koff/kon; 50 mM Tris pH 7.5, 100 mM NaCl, 2 mM DTT
T1 construct: ECF sigma factor σR (SigR) of Streptomyces coelicolor; residues 5-227 subcloned into pET21a with a C-terminal stop codon for tagless expression; also called sigma factor σR; SigR; source: E. coli BL21(DE3), purified without tags (ammonium sulfate precipitation, Q-Sepharose, Hi-Load S75)

[2] = target: T2, σR Trp88Ile Trp119Ile (Streptomyces coelicolor, UniProt Q7AKG9 5-227, Trp88Ile | Trp119Ile); test: ITC; competition ITC as for the wild-type complex (Figure 3a): RsrAred.Zn2+ (100 μM) titrated into σR (10 μM, cell) in the presence of 50 μM weak competitor RsrA* Cys11Ser Cys44Ser; 35 °C, 50 mM Tris pH 7.5, 100 mM NaCl, 2 mM DTT
T2 construct: ECF sigma factor σR (SigR) of Streptomyces coelicolor; mutant of the tagless construct of residues 5-227 (all σR mutants were similarly purified); The limits are those of the wild-type construct; source: E. coli BL21(DE3), purified as wild-type σR

[3] = target: T1, σR (residues 5-227); test: stopped-flow tryptophan fluorescence; 25 °C, with zinc; kon: pseudo-first-order, σR 125 nM, RsrA 1.25-2.5 μM; koff: 2.5 μM complex displaced with 25 μM σR Trp88Ile Trp119Ile; Kd = koff/kon; 50 mM Tris pH 7.5, 100 mM NaCl, 2 mM DTT
[4] = target: T1, σR (residues 5-227); test: stopped-flow tryptophan fluorescence; 35 °C, without zinc (EDTA-treated RsrA); kon: pseudo-first-order, σR 125 nM, RsrA 1.25-2.5 μM; koff: 2.5 μM complex displaced with 25 μM σR Trp88Ile Trp119Ile; Kd = koff/kon; 50 mM Tris pH 7.5, 100 mM NaCl, 2 mM DTT
[5] = target: T1, σR (residues 5-227); test: stopped-flow tryptophan fluorescence; 25 °C, without zinc (EDTA-treated RsrA); kon: pseudo-first-order, σR 125 nM, RsrA 1.25-2.5 μM; koff: 2.5 μM complex displaced with 25 μM σR Trp88Ile Trp119Ile; Kd = koff/kon; 50 mM Tris pH 7.5, 100 mM NaCl, 2 mM DTT
[6] = target: T3, σ^R Trp88Ile Trp119Ile (Streptomyces coelicolor, UniProt Q7AKG9 5-227, Trp88Ile | Trp119Ile); test: stopped-flow tryptophan fluorescence; dissociation by competition, with zinc: 2.5 μM complex mixed with 25 μM σ^R Trp88Ile Trp119Ile (10-fold excess); 25 or 35 °C, 50 mM Tris pH 7.5, 100 mM NaCl
T3 construct: ECF sigma factor σ^R (SigR) of Streptomyces coelicolor; both tryptophans replaced; The limits 5-227 are those stated for the tagless wild-type construct; source: E. coli BL21(DE3), purified as wild-type σ^R ("All σ^R mutants were similarly purified")

[7] = target: T4, σ^R (sigma factor SigR) from Streptomyces coelicolor, residues 5-227, tagless (Streptomyces coelicolor, UniProt Q7AKG9 5-227); test: as above
T4 construct: ECF sigma factor σ^R (SigR) of Streptomyces coelicolor, residues 5-227 subcloned into pET21a (NdeI, BamHI) with a C-terminal stop codon; also called wild-type σ^R; source: E. coli BL21(DE3), pET21a, purified without tags (ammonium sulfate, Q-Sepharose, Hi-Load S75)

[8] = target: T4, σ^R (sigma factor SigR) from …; test: stopped-flow tryptophan fluorescence; dissociation by competition, without zinc (apo-RsrA): 2.5 μM complex mixed with 25 μM σ^R Trp88Ile Trp119Ile (10-fold excess); 25 °C, 50 mM Tris pH 7.5, 100 mM NaCl
[9] = target: T4, σ^R (sigma factor SigR) from …; test: ITC; competition ITC: RsrA^red.Zn^2+ (100 μM) titrated into σ^R (10 μM) with 50 μM weak-binding RsrA mutant in the cell; 35 °C, 50 mM Tris pH 7.5, 100 mM NaCl, 2 mM DTT; competitive binding model
[10] = target: T4, σ^R (sigma factor SigR) from …; test: ITC; direct titration in the absence of zinc: RsrA^red (100 μM), σ^R (10 μM); 35 °C, 50 mM Tris pH 7.5, 100 mM NaCl, 2 mM DTT; single site model
[11] = target: T1, σR (residues 5-227); test: ITC; with zinc (+), RsrA preincubated with 1 mM ZnCl2 and buffer exchanged; direct titration for weaker binding mutants (methods: 10 μM RsrA in the cell, 100 μM σR in the syringe); 35 °C, 50 mM Tris pH 7.5, 100 mM NaCl, 2 mM DTT; single binding site model
[12] = target: T4, σ^R (sigma factor SigR) from …; test: ITC; RsrA mutants (values in Supplementary Table 1); 35 °C, 50 mM Tris pH 7.5, 100 mM NaCl, 2 mM DTT; direct titration for weaker binding mutants (10 μM RsrA in the cell, 100 μM σ^R in the syringe); RsrA preincubated with ZnCl2 and buffer exchanged where zinc was included

B1: RsrA wild type (natural protein, Streptomyces coelicolor, UniProt Q7AKG8 1-105, looked up)
chain: MSCGEPHETDCSEILDHLYEFLDKEMPDSDCVKFEHHFEECSPCLEKYGLEQAVKKLVKRCCGQDDVPGDLRAKVMGRLDLIRSGQSVPEHDVAAAPSSSAPQES
notes: Reduced protein; used with one equivalent of zinc or after EDTA treatment without zinc (told by the assay); also called RsrAred.Zn2+ (with one zinc); RsrAred (without zinc); source: E. coli BL21(DE3) pLysS, purified by a His-tag that was removed by thrombin; not shown: His tag, N-terminal, cleaved
Kd [1]: 0.27 nM | koff [1]: 0.0024 s⁻¹ | kon [1]: 8.9e+06 M⁻¹ s⁻¹ | Kd [2]: 0.173 nM | stoichiometry N [2]: 1.17 | Kd [3]: 0.13 nM | koff [3]: 0.00071 s⁻¹ | kon [3]: 5.4e+06 M⁻¹ s⁻¹ | Kd [4]: 62.4 nM | koff [4]: 1.08 s⁻¹ | kon [4]: 1.73e+07 M⁻¹ s⁻¹ | Kd [5]: 24.9 nM | koff [5]: 0.286 s⁻¹ | kon [5]: 1.15e+07 M⁻¹ s⁻¹

B2: RsrA* (RsrA with Cys3, Cys31, Cys61 and Cys62 mutated to alanine) (natural protein, Streptomyces coelicolor, UniProt Q7AKG8 1-105, looked up)
chain: MSAGEPHETDCSEILDHLYEFLDKEMPDSDAVKFEHHFEECSPCLEKYGLEQAVKKLVKRAAGQDDVPGDLRAKVMGRLDLIRSGQSVPEHDVAAAPSSSAPQES
notes: the four non-essential cysteines mutated to alanine; also called RsrA*^red.Zn^2+; source: E. coli BL21(DE3) pLysS, purified using a His-tag that was removed by thrombin cleavage; not shown: His-tag, N-terminal, cleaved
binding result [6]: binds | koff [7]: 0.0027 s⁻¹

B3: RsrA (wild type), anti-sigma factor from Streptomyces coelicolor (natural protein, UniProt Q7AKG8 1-105, looked up)
chain: MSCGEPHETDCSEILDHLYEFLDKEMPDSDCVKFEHHFEECSPCLEKYGLEQAVKKLVKRCCGQDDVPGDLRAKVMGRLDLIRSGQSVPEHDVAAAPSSSAPQES
notes: Used reduced with one zinc ion at the ZAS motif (RsrA^red.Zn^2+) or reduced without zinc (EDTA-treated); the assay tells which; also called RsrA^red.Zn^2+; RsrA^red; source: E. coli BL21(DE3) pLysS, purified using a His-tag that was removed by thrombin cleavage; not shown: His-tag, N-terminal, cleaved
fold increase of koff without zinc against with zinc [8]: 400 fold | koff [8]: ~0.3 s⁻¹ | Kd [9]: 0.78 nM and ~0.7 nM | dH [9]: -23.1 kcal/mol | stoichiometry N [9]: 1.01 | fold, kinetically derived Kd at 25 °C lower than at 35 °C [7]: ~2 fold | Kd [10]: 79.3 ± 4.2 nM | dH [10]: -16.26 ± 0.13 kcal/mol | stoichiometry N [10]: 0.97 ± 0.004

B4: RsrA* Cys11His (natural protein, Streptomyces coelicolor, UniProt Q7AKG8 1-105, looked up)
chain: MSAGEPHETDHSEILDHLYEFLDKEMPDSDAVKFEHHFEECSPCLEKYGLEQAVKKLVKRAAGQDDVPGDLRAKVMGRLDLIRSGQSVPEHDVAAAPSSSAPQES
notes: The complex with σ^R analysed by native MS has a theoretical mass of 40,128.08 Da, which may mean that tags were present in that sample; also called RsrA*^red.Zn^2+ Cys11His; source: E. coli BL21(DE3) pLysS, purified using a His-tag that was removed by thrombin cleavage; not shown: His-tag, N-terminal, cleaved
binding result [6]: binds | koff [7]: 0.064 s⁻¹

More lines, now with the values ahead:

binding result [6]: binds | koff [7]: ~2.3 s⁻¹
B5: RsrA* Cys11His Cys41His Cys44His (natural protein, Streptomyces coelicolor, UniProt Q7AKG8 1-105, looked up)
chain: MSAGEPHETDHSEILDHLYEFLDKEMPDSDAVKFEHHFEEHSPHLEKYGLEQAVKKLVKRAAGQDDVPGDLRAKVMGRLDLIRSGQSVPEHDVAAAPSSSAPQES
notes: Non-oxidative control; also called triple mutant; RsrA*^red.Zn^2+ Cys11His Cys41His Cys44His; source: E. coli BL21(DE3) pLysS, purified using a His-tag that was removed by thrombin cleavage; not shown: His-tag, N-terminal, cleaved

Kd [11]: 305 nM
B6: RsrA* C11H C41H C44H (natural protein, Streptomyces coelicolor, UniProt Q7AKG8 1-105, looked up)
chain: MSAGEPHETDHSEILDHLYEFLDKEMPDSDAVKFEHHFEEHSPHLEKYGLEQAVKKLVKRAAGQDDVPGDLRAKVMGRLDLIRSGQSVPEHDVAAAPSSSAPQES
notes: also called RsrA* Cys11His Cys41His Cys44His; source: E. coli BL21(DE3) pLysS, purified by a His-tag that was removed by thrombin; not shown: His tag, N-terminal, cleaved

Kd [12]: 185 nM
B7: RsrA* Cys11Ser Cys44Ser (natural protein, Streptomyces coelicolor, UniProt Q7AKG8 1-105, looked up)
chain: MSAGEPHETDSSEILDHLYEFLDKEMPDSDAVKFEHHFEECSPSLEKYGLEQAVKKLVKRAAGQDDVPGDLRAKVMGRLDLIRSGQSVPEHDVAAAPSSSAPQES
notes: source: E. coli BL21(DE3) pLysS, purified using a His-tag that was removed by thrombin cleavage; not shown: His-tag, N-terminal, cleaved

binding result [12]: binds
B8: RsrA* Cys44His (natural protein, Streptomyces coelicolor, UniProt Q7AKG8 1-105, looked up)
chain: MSAGEPHETDCSEILDHLYEFLDKEMPDSDAVKFEHHFEECSPHLEKYGLEQAVKKLVKRAAGQDDVPGDLRAKVMGRLDLIRSGQSVPEHDVAAAPSSSAPQES
notes: as for B7
